Positions count from the first letter of the chain named.
T1: IFN-αF (human, UniProt P01568 24-189)
T1 chain: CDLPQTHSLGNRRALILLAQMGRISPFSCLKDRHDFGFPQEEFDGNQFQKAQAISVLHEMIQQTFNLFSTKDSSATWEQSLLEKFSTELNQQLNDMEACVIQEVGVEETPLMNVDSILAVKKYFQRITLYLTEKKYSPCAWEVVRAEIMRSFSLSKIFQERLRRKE

B1: IFWM3410 (antibody, IgG1, V domains shown)
VH: EVQLVQSGAEVKKPGESLKISCKGSGYSFTSYWIGWVRQMPGKGLEWMGIIDPSDSDTRYSPSFQGQVTISADKSISTAYLQWSSLKASDTAMYYCARHPGLAWAPDFDYWGQGTLVTVSS
VL: DIQMTQSPSSLSASVGDRVTITCRASQSIANTNLNWYQQKPGKAPKLLIHWASSLQSGVPSRFSGSGSGTDFTLTISSLQPEDFATYYCQQWYDNPLTFGQGTKVEIK
notes: mAb; IgG1/kappa said of the parent and of selected mAbs; also called IFWB3145
B2: IFWM3416 (antibody, IgG1, V domains shown)
VH: B1 VH
VL: B1 VL with A30R, W92G, N95T, L97F
notes: mAb; IgG1/kappa said of the parent and of selected mAbs; also called IFWB3151
B3: IFWM3322 (antibody, IgG1, V domains shown)
VH: B1 VH with A103N
VL: DIQMTQSPSSLSASVGDRVTITCRASQSIADFLNWYQQKPGKAPKLLIYFASSLQSGVPSRFSGSGSGTDFTLTISSLQPEDFATYYCQQSHSFPLTFGQGTKVEIK
B4: IFWM3314 (antibody, IgG1, V domains shown)
VH: B1 VH with A103N
VL: B3 VL with A30D, D31R, F32A, H92F, S93D
B5: IFWM3308 (antibody, IgG1, V domains shown)
VH: B1 VH with A103N
VL: B3 VL with D31E, H92I, S93D
B6: IFWM3410 (antibody, IgG1, V domains shown)
VH: B1 VH
VL: B1 VL
B7: IFWM3405 (antibody, IgG1, V domains shown)
VH: B1 VH
VL: B1 VL with T32N, W92G, N95T, L97F
B8: IFWM3328 (antibody, IgG1, V domains shown)
VH: B1 VH with A103N
VL: DIQMTQSPSSLSASVGDRVTITCRASQSINNLNWYQQKPGKAPKLLIYWASSLQSGVPSRFSGSGSGTDFTLTISSLQPEDFATYYCQQGYDTPFTFGQGTKVEIK
B9: IFWM3332 (antibody, IgG1, V domains shown)
VH: B1 VH with A103N
VL: B1 VL
B10: IFWM3385 (antibody, IgG1, V domains shown)
VH: B1 VH
VL: B3 VL with A30G, S91A, H92L, S93D
B11: IFWM3307 (antibody, IgG1, V domains shown)
VH: B1 VH with A103N
VL: B3 VL with A30G, S91A, H92L, S93D
B12: IFWM371 (antibody, IgG1, V domains shown)
VH: B1 VH with A103N
VL: not shown
B13: IFWM3416 (antibody, IgG1, V domains shown)
VH: B1 VH
VL: B1 VL with A30R, W92G, N95T, L97F
B14: IFWM3304 (antibody, IgG1, V domains shown)
VH: B1 VH with A103N
VL: B3 VL with A30G, D31S, F32A, H92Y, S93D
B15: IFWM3310 (antibody, IgG1, V domains shown)
VH: B1 VH with A103N
VL: B3 VL with A30G, D31K, F32S, H92Y, S93D
B16: IFWM3320 (antibody, IgG1, V domains shown)
VH: B1 VH with A103N
VL: B3 VL with A30N, D31G, F32V, S93D
B17: IFWM3400 (antibody, IgG1, V domains shown)
VH: B1 VH
VL: B3 VL
B18: IFWM3460 (antibody, V domains shown)
VH: B1 VH with A103N
VL: B3 VL with A30D, D31G, F50V, H92Y, S93D, F94L, L96I
B19: IFWM3455 (antibody, V domains shown)
VH: B1 VH with A103N
VL: B3 VL with A30D, D31G, F32Y, H92Y, S93D, F94L, L96I

target: IFN-αH2 (human, UniProt P01570 24-189); assay: cell-based or functional assay

IC50, ISRE assay [nM] | Binder
0.033 | B1
0.035 | B2

target: T2, IFN-αG (human, UniProt P01569 24-189); assay: cell-based or functional assay

IC50, ISRE assay [nM] | Binder
0.055 | B1
0.049 | B2

target: T3, IFN-αC (human, UniProt P01566 24-189); assay: cell-based or functional assay

IC50, ISRE assay [nM] | Binder
0.168 | B1
0.112 | B2

Target: T1, IFN-αF
Assay: cell-based or functional assay

IC50, ISRE assay [nM] | Binder
0.077 | B1
0.064 | B2

target: IFN-αWA (human, UniProt P05015 24-189); assay: cell-based or functional assay

IC50 (pM), ISRE assay [pM] | Binder
382 | B3
188 | B4
894 | B5
538 | B6
216 | B7
3080 | B8
947 | B9
839 | B10
600 | B11
74200 | B12
779 | B13
237 | B14
473 | B15
633 | B16
376 | B17

target: IFN-αK (human, UniProt P05013 24-189); assay: cell-based or functional assay

IC50 (pM), ISRE assay [pM] | Binder
71 | B3
65 | B4
59 | B5
41 | B6
22 | B7
321 | B8
76 | B9
65 | B10
95 | B11
7300 | B12
43 | B13
57 | B14
96 | B15
34 | B16
35 | B17

target: T4, human IFN-ω (human, UniProt P05000 24-195); assay: cell-based or functional assay

IC50 (pM), ISRE assay [pM] | Binder
59 | B3
32 | B4
40 | B5
89 | B6
19 | B7
456 | B8
228 | B9
68 | B10
100 | B11
43900 | B12
40 | B13
31 | B14
81 | B15
53 | B16
29 | B17

target: IFN-α4a (human, UniProt P05014 24-189); assay: cell-based or functional assay

IC50 (pM), ISRE assay [pM] | Binder
352 | B3
137 | B4
295 | B5
192 | B6
86 | B7
1170 | B8
519 | B9
414 | B10
501 | B11
32800 | B12
201 | B13
112 | B14
169 | B15
166 | B16
220 | B17

target: IFN-αI (human, UniProt P01571 24-189); assay: cell-based or functional assay

IC50 (pM), ISRE assay [pM] | Binder
460 | B3
163 | B4
478 | B5
183 | B6
72 | B7
2000 | B8
893 | B9
225 | B10
752 | B11
158 | B13
157 | B14
258 | B15
355 | B16
137 | B17

target: IFN-αJ1 (human, UniProt P01567 24-189); assay: cell-based or functional assay

IC50 (pM), ISRE assay [pM] | Binder
169 | B3
86 | B4
363 | B5
217 | B6
26 | B7
1660 | B8
487 | B9
251 | B10
328 | B11
35700 | B12
61 | B13
126 | B14
166 | B15
213 | B16
154 | B17

target: T5, IFN-αJ1 (human, UniProt P01567 24-189); assay: ProteOn SPR, cell supernatant;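 note: each binding measurement used just a single antigen concentration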
T5 construct: Recombinant, HEK293; also called IFN-α7

Kd [nM] | Binder
0.082 | B1
0.068 | B2

target: T6, IFN-αWA (human, UniProt P05015 24-189); assay: ProteOn SPR, cell supernatant;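 note: each binding measurement used just a single antigen concentration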
T6 construct: Recombinant, HEK293; also called IFN-α16

Kd [nM] | Binder
0.052 | B1
0.069 | B2

target: T7, IFN-α4a (human, UniProt P05014 24-189); assay: ProteOn SPR, cell supernatant;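 note: each binding measurement used just a single antigen concentration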
T7 construct: Recombinant, HEK293; also called IFN-αM1

Kd [nM] | Binder
0.086 | B1
0.103 | B2

target: T2, IFN-αG; assay: ProteOn SPR, cell supernatant;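 note: each binding measurement used just a single antigen concentration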

Kd [nM] | Binder
0.052 | B1
0.029 | B2

target: T8, human IFN-ω (human, UniProt P05000 24-195); assay: ProteOn SPR, cell supernatant;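 note: each binding measurement used just a single antigen concentration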
T8 construct: Recombinant, HEK293; also called interferon omega

Kd [nM] | Binder
0.029 | B1
0.028 | B2

target: T3, IFN-αC; assay: ProteOn SPR, cell supernatant;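 note: each binding measurement used just a single antigen concentration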

Kd [nM] | Binder
0.037 | B1
0.029 | B2

Target: T1, IFN-αF
Assay: ProteOn SPR, cell supernatant

Kd [nM] | Binder
0.052 | B1
0.045 | B2

target: T4, human IFN-ω; assay: cell-based or functional assay; remark: another data set of the same source

IC50 (pM), ISRE reporter gene assay [pM] | Binder
43.5 | B18
24 | B19
